For test [1], the target named is T1, recombinant MG1-MG2 domain of human C5 beta-chain (human, UniProt P01031 20-225).
T1 construct: also called MG1-MG2 domain (1-225) of human C5
The test is described as follows: SPR (BIACORE T200), antibody captured, MG1-MG2 domain injected, pH7.4, 37 degrees C. A general note: In SPR one partner is held on a chip, and binding of the other changes the refractive index at the surface.

In the next test the target is T2, recombinant human C5 (human, UniProt P01031 20-1676).
T2 construct: The same entry is used here for C5 in normal human serum in the functional rows; also called hC5; rhC5
The test is described as follows: SPR (BIACORE T200), ratio of kd of condition (2) and (1).

The record followed here is patent publication EP4785956A2 (CHUGAI SEIYAKU KABUSHIKI KAISHA, dated 2026).

B1: eculizumab-F760G4 (antibody, human IgG4 S228P, kappa)
heavy: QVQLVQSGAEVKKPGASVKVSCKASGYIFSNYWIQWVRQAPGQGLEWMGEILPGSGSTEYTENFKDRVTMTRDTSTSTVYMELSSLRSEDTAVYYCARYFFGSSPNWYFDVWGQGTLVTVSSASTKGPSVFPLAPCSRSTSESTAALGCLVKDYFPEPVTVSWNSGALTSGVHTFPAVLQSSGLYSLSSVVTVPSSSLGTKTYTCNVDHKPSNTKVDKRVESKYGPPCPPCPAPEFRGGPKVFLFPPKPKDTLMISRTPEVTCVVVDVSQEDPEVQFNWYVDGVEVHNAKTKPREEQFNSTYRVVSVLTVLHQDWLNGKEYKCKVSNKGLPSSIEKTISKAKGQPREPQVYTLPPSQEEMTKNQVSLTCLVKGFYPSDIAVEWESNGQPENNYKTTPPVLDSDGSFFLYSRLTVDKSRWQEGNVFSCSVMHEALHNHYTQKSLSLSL
light: DIQMTQSPSSLSASVGDRVTITCGASENIYGALNWYQQKPGKAPKLLIYGATNLADGVPSRFSGSGSGTDFTLTISSLQPEDFATYYCQNVLNTPLTFGQGTKVEIKRTVAAPSVFIFPPSDEQLKSGTASVVCLLNNFYPREAKVQWKVDNALQSGNSQESVTEQDSKDSTYSLSSTLTLSKADYEKHKVYACEVTHQGLSSPVTKSFNRGEC
With B1, in test [1], the binding result is “no binding (tested: 20 nM and 40 nM)”.

B2: 305LO16-SG422 (antibody, V domains shown)
VH: QVQLVESGGGLVQPGRSLRLSCAASGFTVHSSYYMAWVRQAPGKGLEWVGAIFTGSGAEYKAEWVKGRFTISRDNSKNTLYLQMNSLRAEDTAVYYCASDAGYDYPTHAMHYWGRGTLVTVSS
VL: DIQMTQSPSSLSASVGDRVTITCRASQGISSSLAWYQQKPGKAPKLLIYGASETESGVPSRFSGSGSGTDFTLTISSLQPEDFATYYCQNTKVGSSYGNTFGGGTKVEIKR
B2: the “pH dependency (ratio of dissociation rate at pH5.8 to that at pH7.4)” value with recombinant human C5 turned out to be 21.1.

B3: 305LO20-SG115 (antibody)
heavy: QVQLVESGGGLVQPGGSLRLSCAASGFTVHSSYYMAWVRQAPGKGLEWVGAIFTGSGAEYKAEWAKGRVTISKDTSKNQVVLTMTNMDPVDTATYYCASDAGYDYPTHAMHYWGQGTLVTVSSASTKGPSVFPLAPSSKSTSGGTAALGCLVKDYFPEPVTVSWNSGALTSGVHTFPAVLQSSGLYSLSSVVTVPSSSLGTQTYICNVNHKPSNTKVDKKVEPKSCDKTHTCPPCPAPELRRGPKVFLFPPKPKDTLMISRTPEVTCVVVDVSHEDPEVKFNWYVDGVEVHNAKTKPREEQYNSTYRVVSVLTVLHQDWLNGKEYKCKVSNKGLPSSIEKTISKAKGQPREPQVYTLPPSREEMTKNQVSLTCLVKGFYPSDIAVEWESNGQPENNYKTTPPVLDSDGSFFLYSKLTVDKSRWQQGNVFSCSVLHEALHAHYTRKELSLSP
light: DIQMTQSPSSLSASVGDRVTITCRASQGISSSLAWYQQKPGQAPRLLIYGASETESGVPSRFSGSGSGTDFTLTISSLQPEDFATYYCQNTKVGSSYGNTFGGGTKVEIKRTVAAPSVFIFPPSDEQLKSGTASVVCLLNNFYPREAKVQWKVDNALQSGNSQESVTEQDSKDSTYSLSSTLTLSKADYEKHKVYACEVTHQGLSSPVTKSFNRGEC
Turning to B3, in the test with recombinant human C5, the “pH dependency (ratio of dissociation rate at pH5.8 to that at pH7.4)” value stood at 17.5.

B4: 305LO20-SG422 (antibody)
heavy: QVQLVESGGGLVQPGGSLRLSCAASGFTVHSSYYMAWVRQAPGKGLEWVGAIFTGSGAEYKAEWAKGRVTISKDTSKNQVVLTMTNMDPVDTATYYCASDAGYDYPTHAMHYWGQGTLVTVSSASTKGPSVFPLAPCSRSTSGGTAALGCLVKDYFPEPVTVSWNSGALTSGVHTFPAVLQSSGLYSLSSVVTVPSSSLGTKTYTCNVDHKPSNTKVDKRVESKYGPPCPPCPAPEFRRGPKVFLFPPKPKDTLMISRTPEVTCVVVDVSHEDPEVKFNWYVDGVEVHNAKTKPREEQYNSTYRVVSVLTVLHQDWLNGKEYKCKVSNKGLPSSIEKTISKAKGQPREPQVYTLPPSREEMTKNQVSLTCLVKGFYPSDIAVEWESNGQPENNYKTTPPVLDSDGSFFLYSKLTVDKSRWQQGNVFSCSVLHEALHAHYTRKELSLSP
light: DIQMTQSPSSLSASVGDRVTITCRASQGISSSLAWYQQKPGQAPRLLIYGASETESGVPSRFSGSGSGTDFTLTISSLQPEDFATYYCQNTKVGSSYGNTFGGGTKVEIKRTVAAPSVFIFPPSDEQLKSGTASVVCLLNNFYPREAKVQWKVDNALQSGNSQESVTEQDSKDSTYSLSSTLTLSKADYEKHKVYACEVTHQGLSSPVTKSFNRGEC
For the molecule B4, the “pH dependency (ratio of dissociation rate at pH5.8 to that at pH7.4)” value with recombinant human C5 is 17.3.

B5: 305LO23-SG115 (antibody, V domains shown)
VH: QVQLVESGGGLVQPGGSLRLSCAASGFTVHSSYYMAWVRQAPGKGLEWVSGIFTGSGATYKAEWAKGRVTISKDTSKNQVVLTMTNMDPVDTATYYCASDAGYDYPTHAMHYWGQGTLVTVSS
VL: DIQMTQSPSSLSASVGDRVTITCRASQGISSSLAWYQQKPGQAPRLLIYGASTTQSGVPSRFSGSGSGTDFTLTISSLQPEDFATYYCQNTKVGSSYGNTFGGGTKVEIKR
Consider B5, for which the “pH dependency (ratio of dissociation rate at pH5.8 to that at pH7.4)” value in the test with recombinant human C5 was determined as 20.2.
